According to patent publication US8173598B2, “Myeloid protein activation of anti-inflammatory and anti-hypoxic pathway” (The Board of Trustees of the University of Illinois, priority 2008, dated 2012):
No end group written: not given here. *: point of attachment. Palmitoyl = CCCCCCCCCCCCCCCC(=O)*

Key:
[1] = tested on: excisional cutaneous wounds; assay: Wound closure in the SKH-1 restraint stress model; format: in vivo, SKH-1 mice
Source text: This protocol was approved by the Committee on Animal Research at the University of Illinois at Chicago. Virus antibody-free, female SKH-1 mice, 5-6 weeks of age, were purchased from Charles River, Inc (Wilmington, Mass.). The animals were allowed to acclimate to the animal facility for at least one week prior to experimental procedures.
(§1) The restraint stress protocol is based on established procedures (Gajendrareddy et al., 2005; Mercado et al., 2002; Padgett et al., 1998). Restraint was initiated 3 days before wounding. Restraint stress (RST) in this model consists of confinement of mice within loosely fitting, well-ventilated 50 ml conical tubes for a period of 12-14 hours during their active nocturnal cycle. Animals were subjected to restraint for an additional five cycles on the day of wounding and for four days thereafter, then stress was discontinued.
For excisional wounds, mice were anesthetized with a single 0.25 ml intraperitoneal injection of Ketaset solution (Aveco, Fort Dodge, Iowa) at a concentration of 7.8 mg/ml, plus Rompum (Haver-Lockhart, Shawnee, Kans.) at 0.44 mg/ml. Each animal received two standardized circular cutaneous wounds with 3.5 mm punch (Miltex Instrument Company), placed just behind the shoulder blades with a biopsy punch.
(§2) For treatment of wounds, S100A8 and mutant ala^42S100A8 were produced, cleaved and purified from a GST fusion construct as previously described (Tugizov et al., 2005) (Sroussi et al., 2006). The endotoxin levels in the recombinant protein preparations were below 1 ng/μg of proteins as measured by the Limulus amoebocyte lysate assay (LAL) (Associates of Cape Cod, Falmouth, Mass.). Solutions of S100 proteins at a concentration of 1 μg/ml were used for those experiments. Introduction of S100A8 protein or control saline vehicle were conducted through local injection intradermally of 25 μl solution in the tissue surrounding the wounds with the help of Micro-Fine IV syringes 28G1/2 (Becton Dickinson, Franklin Lakes, N.J.). Careful wound manipulation ensured no direct disruption of the wound site. An additional 10 μl solution was applied directly to the wounds.
Measurement of Wound Sizes was done as follows. Beginning on the day of wounding (day 0), each animal's wounds were photographed daily until day 5 post-wounding. Photographs of the wound were obtained with a standard-sized dot placed next to the site. Digitized photographs were analyzed using photoplanimetry (Marucha et al., 1998). An investigator blinded to treatment group and day of photograph measured wound size. Wound size was expressed as the percentage of the wound area determined on every post-wounding day, compared with the original wound area.

thrombin receptors = assay: Calcium flux and thrombin-S100A8/A9 cross-desensitization in Chem-3 cells; format: cell-based; conditions: each alone
Method: (§3) Screening for S100A8 and S100A9 activity on thrombin receptors including thrombin receptor desensitization were conducted with calcium flux assays in Chem 3 and PAR-4 expressing Chem.-1 cells by Millipore's GPCRProfiler(R) Service (Millipore, St. Charles, Mo.; see website Millipore website on the internet).

neutrophils = conditions: cited from earlier work
[2] = tested on: Human peripheral neutrophils; assay: LPS stimulated neutrophil oxidative metabolism (DCFH-DA oxidation); format: cell-based; conditions: 2.5 to 10 μg/ml of protein; LPS 10 μg/ml
Source text: (§4) Human peripheral neutrophils were isolated from heparinized blood donated by healthy volunteers according to a protocol approved by the University of Illinois Institutional Review Board. The cells were isolated using a Histopaque™ gradient (Sigma) according to the manufacturer's instructions. Cell viability and identity was confirmed by trypan blue staining. Live cells and neutrophils represented at least 95% of isolated leukocytes.
(§5) The method for the measurement of oxidative activation of neutrophils was based on the ROS-dependent oxidation of DCFH-DA to DCF and was adapted from Ciapetti et al. DCFH-DA crosses the cell membrane and is hydrolyzed by nonspecific esterases to nonfluorescent DCFH. Its oxidation by ROS results in the generation of highly fluorescent DCF [30]. DCFH-DA is therefore a widely accepted probe for the measurement of an overall index of oxidative activity. DCFH-DA was purchased from Calbiochem (Madison, Wis.). The assays were run in clear bottom black 96-well plate. “Edge effects” (a higher fluorescence in edge wells) were avoided by using only center wells. Briefly, 50 μl of Dulbecco's Phosphate Buffered Saline (DPBS) containing DCFH-DA was added to each well with the final concentration of […]. S100 proteins or PKC inhibitors were diluted in the wells. Just before a baseline reading 100,000 neutrophils in 50 μl PBS were placed in each well. 96-well plates were incubated at 37° C. and 5% CO2 and were read at baseline (immediately after cell addition to the plates) and at indicated time points in a Spectra Max Gemini XS fluorescent plate reader. The excitation wavelength was 485 and the reading was done at 530 nm. Wells with no DCFH-DA were used to measure background fluorescence which was subtracted from each reading. Controls with no cells were also analyzed and display no increased fluorescence over time. All assays were conducted in triplicate or quadruplicate wells.

PAR-4 = target: T1, PAR-4 (Homo sapiens, UniProt Q96RI0); assay: Calcium flux and desensitization to thrombin in PAR-4 expressing Chem.-1 cells; format: cell-based
T1 construct: host or cells: Chem-1 cells
T1 sequence (Q96RI0 18-385): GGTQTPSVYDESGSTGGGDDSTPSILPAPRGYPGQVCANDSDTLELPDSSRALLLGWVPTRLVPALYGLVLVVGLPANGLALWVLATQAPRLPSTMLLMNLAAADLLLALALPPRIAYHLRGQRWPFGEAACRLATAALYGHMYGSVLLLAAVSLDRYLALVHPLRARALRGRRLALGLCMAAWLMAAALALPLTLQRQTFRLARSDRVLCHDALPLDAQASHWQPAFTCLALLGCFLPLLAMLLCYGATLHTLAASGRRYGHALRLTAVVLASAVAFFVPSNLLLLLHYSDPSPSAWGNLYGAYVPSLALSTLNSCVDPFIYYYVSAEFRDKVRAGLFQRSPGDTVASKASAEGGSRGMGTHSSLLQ
Method: as §3

[3] = tested on: Human peripheral neutrophils; assay: Spontaneous oxidative activation of neutrophils (DCFH-DA oxidation); format: cell-based
Source text: as §4, §5
In order to avoid differences between donors, experimental procedures and plate to plate variation, all experimental conditions and statistical analysis were run within one plate inclusive of all positive and negative controls. Single sample t-tests were calculated to test the S100A8, S100A9 and combined proteins in comparison to the control wells with alpha set to ≦0.05 to determine statistical significance. Comparisons between the S100A8, S100A9 and combined proteins were calculated with two sample t-tests using SPSS (SPSS Inc., Chicago, Ill.) with alpha set to ≦0.05 to determine statistical relevance.

[4] = tested on: Human peripheral neutrophils; assay: PMA induced activation of neutrophil oxidative metabolism (DCFH-DA oxidation); format: cell-based; conditions: dose dependent
Source text: as §4, §5

[5] = tested on: Human peripheral neutrophils; assay: PAR-4 activating peptide enhanced neutrophil oxidative metabolism (DCFH-DA oxidation); format: cell-based; conditions: P4pal-i1 with PAR-4 activating peptide (FIG. 6A)
Source text: as §4
The method for the measurement of oxidative activation of neutrophils was based on the ROS-dependent oxidation of DCFH-DA to DCF and was adapted from Ciapetti et al. DCFH-DA crosses the cell membrane and is hydrolyzed by nonspecific esterases to nonfluorescent DCFH. […] “Edge effects” (a higher fluorescence in edge wells) were avoided by using only center wells. […] Just before a baseline reading 100,000 neutrophils in 50 μl PBS were placed in each well. 96-well plates were incubated at 37° C. and 5% CO2 and were read at baseline (immediately after cell addition to the plates) and at indicated time points in a Spectra Max Gemini XS fluorescent plate reader. The excitation wavelength was 485 and the reading was done at 530 nm. Wells with no DCFH-DA were used to measure background fluorescence which was subtracted from each reading. Controls with no cells were also analyzed and display no increased fluorescence over time. […]

[6] = tested on: recruitment of neutrophils; conditions: rat air-pouch; Sroussi et al., 2006; cited from earlier work
wound bacterial load = format: in vivo, SKH-1 mice
Method: as §1, §2
Wound biopsies were performed to evaluate bacterial clearance. Mice were anesthetized as described above. The dorsal area was cleaned with Betadine and a uniform, full-thickness wound located on the dorsum just below the shoulder blades was created with a sterile 6.0-mm punch (Miltex Instrument Company).
Wound infection was assessed with measurement of bacterial load at the wound site by methods adapted from Rojas (Rojas et al., 2002). At day 1 and day 5 post-wounding, mice were euthanized; wounds were collected with a 6-mm punch (see above) and homogenized in 1 ml of sterile PBS. Homogenates were serially diluted (1:10); plated in duplicate on BHI agar, and incubated for 15 h. Bacterial colonies were counted.

[7] = restraint stressed (RST) mice, single local treatment immediately after wounding

Molecule: S100A8: recombinant human S100A8 calcium binding protein, expressed in Escherichia coli as GST fusion, GST tag cleaved
- wound closure rate in stressed animals [1, 7]: partial acceleration in wound closure rate in stressed animals
- calcium flux in Chem-3 cells (thrombin receptors): trigger calcium flux in Chem-3 cells in a dose dependent manner
- neutrophil chemotaxis toward bacterial products (formylated peptides) (neutrophils; in-vitro, Sroussi et al., 2006, 2007): inhibit neutrophil chemotaxis toward bacterial products
- LPS stimulation of neutrophil oxidative activity [2]: strongly inhibited LPS stimulation of neutrophil oxidative activity
- calcium flux in PAR-4 expressing cells (PAR-4; data not shown): activated calcium flux in those cells
- desensitization of PAR-4 expressing cells to thrombin activation (PAR-4; previous treatment with different concentrations, then 10 nM thrombin): dose dependently desensitized PAR-4 expressing cells to thrombin activation
- rate of spontaneous oxidation of the DCFH-DA probe ([3]; 2.5 to 10 μg/ml of protein, followed over time, p <0.001 to <0.05): reduced the rate at which spontaneous oxidation of the DCFH-DA probe occurred in a dose dependent manner
- oxidative activation of neutrophils ([3]; 5, 2.5 and 1.25 μg/ml, p<0.05): inhibited the oxidative activation of neutrophils
- oxidative metabolism (fluorescence emission of DCFH-DA probe) ([3]; 1 h time point, all concentrations tested, P<0.05 compared to control): significantly inhibited oxidative metabolism at all concentrations tested
- oxidative activation of neutrophils, protein first boiled ([3]; same concentrations (5, 2.5, 1.25 μg/ml), protein boiled for 5 minutes): did not significantly affect the neutrophils
- PMA activation of neutrophils [4]: produced a dose dependent inhibition of PMA activation of neutrophils

Molecule: C15H31CONH-ATGAPRLPST (Palmitoyl-ATGAPRLPST) [P4pal-i1, reference compound]
- PAR-4 activating peptide enhancement of oxidative metabolism [5]: blocked the ability of the PAR-4 activating peptide to enhance oxidative metabolism
- spontaneous oxidative metabolic activity ([3]; 2.5 μM P4pal-i1): spontaneous oxidative metabolic activity was reduced
- effect on S100A8, S100A9 and calprotectin inhibition of spontaneous oxidative metabolic activity ([3]; P4pal-i1 with S100 proteins (FIG. 6B)): blocked the ability of S100A8, S100A9 and calprotectin (S100A8/A9 in combination) to inhibit the spontaneous oxidative metabolic activity of neutrophils

B1: ala^42S100A8: oxidation-resistant analog of S100A8 engineered using site-directed mutagenesis (cysteine 42 replaced with alanine) (protein, UniProt P05109 1-93, looked up, variant C42A)
Protein S100-A8: MLTELEKALNSIIDVYHKYSLIKGNFHAVYRDDLKKLLETEAPQYIRKKGADVWFKELDINTDGAVNFQEFLILVIKMGVAAHKKSHEESHKE
- wound closure in non-stressed animals with daily treatment ([1]; FWD mice, daily treatment, vs daily saline): significant delay in wound closure starting at day 4 post-wounding
- wound closure rates in non-stressed control animals ([1]; FWD mice, single application): normal wound closure rates
- wound closure rates with daily injections ([1]; daily administration to the wounds): did not result in the amelioration of wound closure rates
- wound closure rate in stressed animals [1, 7]: closure rate similar to the closure rates observed in the non stressed food and water deprived (FWD) group
- average wound size in stressed animals vs saline ([1]; restraint stressed (RST) mice, single local treatment immediately after wounding, from day 2 on): significantly smaller than the average wound size in stressed animals treated with saline
- chemo-repulsive activity under oxidative conditions (neutrophils; conditions that inhibit wild type S100A8): retains its chemo-repulsive activity under oxidative conditions
- recruitment of neutrophils stimulated by bacterial endotoxins [6]: inhibits the recruitment of neutrophils stimulated by bacterial endotoxins
- wound bacterial loads, stressed mice, day 1 (wound bacterial load; RST mice, day 1, vs saline treated stressed mice): statistically significant reduction in bacterial loads
- wound bacterial loads, stressed mice, day 5 (wound bacterial load; RST mice, day 5, vs saline treated stressed mice): statistically significant reduction in bacterial loads
- wound bacterial counts, FWD mice, day 1 (wound bacterial load; mouse, in vivo): statistically significant increase in wound bacterial counts
- wound bacterial counts, FWD mice, day 5 (wound bacterial load; mouse, in vivo): bacterial counts had reverted to control values
